# Results: patent publication US20260256879A1, “COMBINATION THERAPY WITH MEK INHIBITORS FOR THE TREATMENT OF CANCER” (FUNDACIÓ PRIVADA INSTITUT D'INVESTIGACIÓ ONCOLÒGICA DE VALL …, priority 2023, published 2026)
# B1: Omomyc: Mutated bHLHZip domain of Myc (E61T, E68I, R74Q, R75N); tested polypeptide is SEQ ID NO: 4, N-terminal methionine, produced in E. coli (protein)
# chain: MTEENVKRRTHNVLERQRRNELKRSFFALRDQIPELENNEKAPKVVILKKATAYILSVQAETQKLISEIDLLRKQNEQLKHKLEQLRNSCA
# modifications: N-terminal methionine
# System: SkMel28 cells
# Assay: AlamarBlue cell viability, 5 days of treatment, alone or in combination; synergy by SynergyFinder 3.0 (ZIP)
# Assay type: cell-based, human
# Conditions: SkMel28, 5 days, FIG. 1A
# Procedure: Omomyc in Combination with MEK Inhibitors Acts Synergistically in Decreasing the Viability of Melanoma Cancer Cells Two human melanoma cell lines with mutations in BRAF (BRAF^V600E) (SkMel28 and SkMel37) were used. Cells were plated in 96 well plates and treated on the following day with increasing concentrations of Trametinib and Omomyc, alone or in combination. After 5 days of treatment, media was removed and AlamarBlue™ Cell Viability Reagent was added to each well, incubated for 3 hours until metabolized, and fluorescence was read with a microplate reader using an excitation between 530-560 and an emission at 590 nm.
# Synergy was evaluated using SynergyFinder 3.0 web application derived from Ianevsky A et al. Nucleic Acids Res. 2022; 50(W1):W739-W743.
# Synergy scores can be interpreted as the average excess response due to drug interactions. Synergy scores close to 0 give limited confidence in synergy or antagonism. So, when the synergy scores are: less than −10, the interaction between two drugs is likely to be antagonistic. From −10 to 10, the interaction between two drugs is likely to be additive. Greater than 10, the interaction between two drugs is likely to be synergistic.
molecule,measurement,value
B1,effect of single agent on viability of the cells,reduces the viability
